Laboratory results: patent US20260234242A1 (HAINAN SIMCERE ZAIMING PHARMACEUTICAL, published 2026)

T1: human CDH6 on tumor cells (OVCAR3 cells, PA-1 cells) (human, UniProt P55285 54-790)
T1 sequence: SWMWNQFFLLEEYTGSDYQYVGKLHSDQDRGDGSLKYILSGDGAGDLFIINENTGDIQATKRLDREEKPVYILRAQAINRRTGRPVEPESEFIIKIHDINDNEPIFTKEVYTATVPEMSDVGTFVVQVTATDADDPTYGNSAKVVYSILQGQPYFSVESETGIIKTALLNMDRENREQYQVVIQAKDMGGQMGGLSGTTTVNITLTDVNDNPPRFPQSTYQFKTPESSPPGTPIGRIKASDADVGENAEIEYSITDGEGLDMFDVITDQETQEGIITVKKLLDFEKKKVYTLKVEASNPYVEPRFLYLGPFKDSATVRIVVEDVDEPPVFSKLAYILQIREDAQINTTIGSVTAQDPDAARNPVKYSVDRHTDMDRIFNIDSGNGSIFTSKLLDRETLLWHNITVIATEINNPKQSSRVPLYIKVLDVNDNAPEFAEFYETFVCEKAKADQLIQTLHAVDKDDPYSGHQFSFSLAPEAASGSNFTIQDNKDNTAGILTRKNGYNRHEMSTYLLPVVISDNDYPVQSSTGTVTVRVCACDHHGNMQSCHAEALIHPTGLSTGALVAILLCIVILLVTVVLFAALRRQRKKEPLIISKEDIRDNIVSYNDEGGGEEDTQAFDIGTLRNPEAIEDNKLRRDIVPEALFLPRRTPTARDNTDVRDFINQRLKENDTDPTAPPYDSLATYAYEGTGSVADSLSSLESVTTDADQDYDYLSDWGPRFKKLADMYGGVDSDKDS

T2: monkey CDH6 protein (cynoCDH6 ECD-his) (monkey (cyno), UniProt A0A2K5TW62 19-615)
T2 construct: range 19-615; also called Cyno CDH6-his; not shown: his tag
T2 sequence: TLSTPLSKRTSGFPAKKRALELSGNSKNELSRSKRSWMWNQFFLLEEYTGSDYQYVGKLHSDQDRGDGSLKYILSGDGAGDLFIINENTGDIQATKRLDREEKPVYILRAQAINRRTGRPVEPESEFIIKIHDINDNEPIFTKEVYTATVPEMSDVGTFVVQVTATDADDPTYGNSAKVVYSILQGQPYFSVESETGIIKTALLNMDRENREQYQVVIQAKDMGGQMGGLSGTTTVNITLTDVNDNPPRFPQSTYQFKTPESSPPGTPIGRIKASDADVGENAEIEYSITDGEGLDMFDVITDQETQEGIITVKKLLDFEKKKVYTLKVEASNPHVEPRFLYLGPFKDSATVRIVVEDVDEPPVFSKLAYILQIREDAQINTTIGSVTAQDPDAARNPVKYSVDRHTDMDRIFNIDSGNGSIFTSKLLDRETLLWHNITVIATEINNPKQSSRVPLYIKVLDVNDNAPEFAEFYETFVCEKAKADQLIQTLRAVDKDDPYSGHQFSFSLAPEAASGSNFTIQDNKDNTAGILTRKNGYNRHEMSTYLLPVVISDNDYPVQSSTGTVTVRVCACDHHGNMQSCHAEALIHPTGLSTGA


What was measured:
[1] = target: T1, human CDH6 on tumor cells (OVCAR3 …); assay: FACS, OVCAR3 cells
Protocol: (§1) OVCAR3 cells with high expression of CDH6 and PA-1 cells with moderate expression of CDH6 were used to detect the binding activity of the antibodies to the cells. […] The cells were washed once with PBS, counted, resuspended to 2×10⁶ cells/mL in an FACS buffer (PBS+2% FBS), and then added to a 96-well plate at 50 μL/well. The chimeric antibodies were diluted with FACS buffer (PBS+2% FBS) and added to the 96-well plate at 50 μL/well, and the plate was incubated at 4° C. for 1 h. […] The dilution was added to the 96-well plate at 50 μL/well, and the plate was incubated at 4° C. for 1 h. After the plates were centrifuged and washed 2 times with PBS, the cells were resuspended in an FACS buffer. The mean fluorescence intensity (MFI) was measured using FACS Canton II (BD). Analysis was performed by the GraphPad Prism software, data were fitted, and EC50 values were calculated. The chimeric antibodies tested had strong binding to both OVCAR3 cells and PA-1 cells.

[2] = target: T2, monkey CDH6 protein (cynoCDH6 ECD-his); assay: ELISA, coated antigen
Protocol: Human CDH6 protein (hCDH6 ECD-his, conventionally synthesized), monkey CDH6 protein (cynoCDH6 ECD-his, conventionally synthesized; the cynoCDH6 ECD sequence was derived from Uniprot #A0A2K5TW62 (19-615)), and murine CDH6 protein (mCDH6 ECD-his, conventionally synthesized; the mCDH6 ECD sequence was derived from Uniprot #P97326 (19-615)) were diluted with PBS to a final concentration of 1 μg/mL, and added to a 96-well ELISA plate at 100 μL/well. The plate was incubated at 4° C. overnight. The next day, the plate was washed 3 times with a plate washing solution (PBS+0.01% (v/v) Tween 20), and a blocking buffer (PBS+0.01% (v/v) Tween 20+2% (w/w) BSA) was added for blocking at room temperature for 2 h. The blocking buffer was discarded, and the plate was washed 3 times. The chimeric antibodies were diluted with 1% BSA+PBS (purchased from Cytiva, Cat. No. SH30264.01) and added to the 96-well plate at 50 μL/well. After incubation at 37° C. for 2 h, the plate was washed 3 times with a plate washing solution. […] The plate was incubated at 37° C. for 1 h and then washed 5 times with a plate washing solution. A TMB substrate (purchased from Seracare, Cat. No. 5120-0077) was added at 50 μL/well and incubated at room temperature for 10 min, then a stop solution (1.0 N HCl) was added at 50 μL/well. OD450 nm values were read using a microplate reader (Biotek). Analysis was performed by the GraphPad Prism software, data were fitted, and EC50 values were calculated. The chimeric antibodies tested all had strong binding to the human CDH6 protein, the monkey CDH6 protein, and the murine CDH6 protein.

[3] = target: T1, human CDH6 on tumor cells (OVCAR3 …); assay: FACS, PA-1 cells
Protocol: as §1

| EC50 [1] | Max MFI [1] | EC50 [2] | Max OD450 [2] | EC50 [3] | Max MFI [3] | Binder |
| --- | --- | --- | --- | --- | --- | --- |
| 0.13 nM | 14700 MFI | 0.023 nM | 2.54 OD450 | 0.1 nM | 4390 MFI | CHI-CDH6-1 (antibody, human IgG1, kappa, V domains shown, also called CHI-hCDH6-1; CH1-CDH6-1) VH: QVQLQQPGAELVRPGSSVKLSCKASGYTFTNYWMHWVKQRPIEGLEWIGDIDPSHSETHYTQKFKDKATLTVDKSSSTAYMQLSSLTSEDSAVYYCARGDLGRFDYWGQGTTLTVSS VL: DIVLTQSPASLAVSLGQRATISCRASESVSIHGTHLMHWYQQKSGQPPKLLIYAASNLESGVPARFSGSGSETDFTFNIHPVEEEDAATYFCQQSFEDPWTFGGGTKLEIKR |
| 0.2 nM | 13900 MFI | 0.026 nM | 2.26 OD450 | 0.08 nM | 4070 MFI | CHI-CDH6-10 (antibody, human IgG1, kappa, V domains shown, also called chimeric antibody of murine CDH6-10) VH: QVQLQQPGAELVKPGTSVKMSCKASGYTFTSDWIAWVKQRPGQGLEWIGDIYPGSGRTHNNEKFNFKATLTVDTSSNTAYMQLSSLTSEDSAVYFCARPMLGRFDYWGQGTTLTVSS VL: DIVLTQSPASLAVSLGQRATISCRASESVSIHGTHLMHWYQQKPGQPPKLLIYAASNLESGVPARFSGSGSETDFTLNIHPVEEEDAATYFCQQSFEDPFTFGSGTKLEIKR |
| 0.67 nM | 14800 MFI | 0.03 nM | 2.24 OD450 | 0.43 nM | 4630 MFI | CHI-CDH6-6 (antibody, human IgG1, kappa, V domains shown, also called CHI-hCDH6-6; chimeric antibody of murine CDH6-6) VH: EVQLQQSGPELVKPGDSVKMSCKASGYTFTDYYMAWVRQSHRKSLEWIGYIFPNSGGTDYSQKFKGKATLTVDKSSSTVYMELHSLTSEDSAVYYCARELGADYGDYYAMDHWGQGTSVSVSS VL: DIQMTQSPASLSASVGETVTITCRASENIDSYLAWYQQKQGKSPQLLVYSATLLADGVPSRFSGSGSGTQYSLKINSLKSEDVARYYCQHYYRTPPTFGSGTKLEIKR |
| 5.57 nM | 12000 MFI | 0.178 nM | 2.05 OD450 | 7.57 nM | 2470 MFI | CHI-CDH6-7 (antibody, human IgG1, kappa, V domains shown, also called CH1-CDH6-7; chimeric antibody of murine CDH6-7) VH: EVKLVESGGGLVKPGGSLKVSCAASGFTFSDHGMAWVRQAPGKGPEWVAFISNLAYSIYYADTVTGRFTISRENAKNTLYLEMSSLRSEDTAMYYCARVYVKWYFDVWGAGTTVTVSS VL: DIQMTQSPASLSASVGETVTITCRASENIDSYLAWYQQKQGKSPQLLVFAATLLADGVPSRFSGSGSGTQYSLKINSLQSEDVARYYCQHYYSTPLTFGAGTKLELKR |
| 0.46 nM | 16100 MFI | 0.026 nM | 2.12 OD450 | 0.23 nM | 4710 MFI | CHI-CDH6-8 (antibody, human IgG1, kappa, V domains shown, also called chimeric antibody of murine CDH6-8) VH: EVQLQQSGPELVKPGDSVKMSCKASGYTFTDYYMAWIKQNHGKSLEWIGYIYPNNGGTDYNQKFRGKATLTVDKSSSAAYMELHSLTSEDSAVYYCAREIGTLYGDYYAMDYWGQGTSVTVSS VL: DIQMTQSPASLSASVGETVTITCRASENIDSYLAWYQQKQGKSPQLLVYTATLLADGVPSRFSGSGSGTQYSLKINSLQSEDVARYYCQHYYSTPPTFGSGTKLEIKR |
| 0.57 nM | 12700 MFI | 0.046 nM | 1.96 OD450 | 0.49 nM | 4560 MFI | CHI-CDH6-5 (antibody, human IgG1, kappa, V domains shown, also called CH1-CDH6-5; chimeric antibody of murine CDH6-5) VH: QVQLQQSGAELVRPGTSVKMSCKAAEYTFTNYWIGWVKQRPGHGLEWIGDLYPGGDHANYNEKFEGKATLTADTSSSTAYMQLSSLTSEDSAIYYCARGMLTTGFDSWGQGTTLTVSS VL: DIVMSQSPSSLAVSAGEKVTMSCKSSQSLFNSRTRKNYLAWYQQKPGQSPKLLIYWASTRESGVPDRFTGSGSGTDFTLTISSVQAEDLAVYYCKQSYYLRTFGGGTKLEIKR |
| 0.51 nM | 18200 MFI | 0.026 nM | 2.78 OD450 | 0.16 nM | 4400 MFI | CHI-CDH6-9 (antibody, human IgG1, kappa, V domains shown, also called chimeric antibody of murine CDH6-9) VH: QVQLQQPGAELVKPGASVKLSCKASGYTFTGYWMHWVRQRPGQGLEWIGEINPNNGGTNCNEQFKNKATLTVDKSSSTAYMQLSSLTSEDSAVFYCTISFGNYLFFDVWGAGTTVTVSS VL: DIQMTQSPASLAASVGETITITCQASENIYFSLAWYQQKQGKSPQLLIYNANTLEDGVPSRFVGSGSGTQYSMKINSIQPEDTATYFCDQTYDFPWTFGGGTKLEIKR |
| 0.36 nM | 15600 MFI | 0.022 nM | 2.12 OD450 | 0.2 nM | 4760 MFI | CHI-CDH6-2 (antibody, human IgG1, kappa, V domains shown, also called chimeric antibody of murine CDH6-2) VH: EVQLQQSGPELVKPGASVRISCKASGYTFTDYYMNWVKQSHGKSLEWIGDIDPNNANTTYNQKFKGKATLTVDKSSSTAYMELRSLTSEDSAVYSCASFGYDVEWFGYWGQGTLVTVSA VL: QIVLTQSPALMSASPGEKVTMTCSASSSVSYMYWYQQKPRSSPKPWIYLTSNLASGVPARFSGSGSGTSYSLTISSMEAEDAATYYCQQWSSNPFTFGSGTKLEIKR |
| 3.17 nM | 14000 MFI | 0.034 nM | 2.23 OD450 | 2.48 nM | 3990 MFI | CHI-CDH6-4 (antibody, human IgG1, kappa, V domains shown, also called CH1-CDH6-4; chimeric antibody of murine CDH6-4) VH: QVQLQQSGPELVKPGASVKISCKASGYAFSNFWMNWVKQRPGKGLEWIGWIYPGDGDTNYNGKFKDKATLTADKSSSTAYIQLSSLTSEDSAVYFCARLYDAWGFFDYWGQGTTLTVSS VL: QIVLTQSPAIMSASPGQKVTITCSASSSVNYMHWYQQKLGSSPKLWIYDKSKLAPGVPARFSGSGSGTSYSLTISSMEAEDAASYFCHQWSSYPPMTFGGGTKLEIKR |
| 1.16 nM | 15500 MFI | 0.041 nM | 2.64 OD450 | 0.13 nM | 3870 MFI | CHI-CDH6-3 (antibody, human IgG1, kappa, V domains shown, also called CH1-CDH6-3; chimeric antibody of murine CDH6-3) VH: QVQLQQPGAELVKPGASVKLSCKASGYTFTSYWIHWVKQRPGQGLEWIGEINPSNGVTNCNENFKSKATLTVDKSSSTAYMQLSSLTSEDSAVYYCTIPNLLWWYFDVWGAGTTVTVSS VL: DIQMTQSPASLSVSVGETVTITCRASENIYSNLAWYQQKQGKSPQLLVYEATNLADGVPSRFSGSGSGTQYSLKINSLQSEDFGSYYCQHFWGTLWTFGGGTKLEIKR |
